Assay results taken from patent US20240076348A1.

Target: Colony-stimulating factor-1 receptor (CSF-1R), encoded by c-fms (UniProt P07333)
Test: cell-based or functional assay

Q: For “C34B pCAR (CSF1-28z plus IL34-41BB), expressed on human T-cells (from UniProt P09603 33-190; Q6ZMJ4 21-242)”, which tumour cell killing on repeated re-stimulation, MTT assay on T47D FMS and T47D monolayers (iterative cycles of re-stimulation) is on record?
A: < 13
